In test [1] the target is Recombinant soluble CD19 ectodomain (made in 293T cells) (UniProt P15391). The experiment in a line: flow cytometry of transduced primary human T-cells stained with anti-CD3 and, for CAR, with recombinant CD19. Other quadrants: 74.7 upper left, 1.86 lower left, 0.16 lower right. The non-transduced control has 0.27 in the upper right. A general note: Flow cytometry measures light scatter and fluorescence of single cells or particles in a stream.

The target in test [2] is CD19 (partner in the 'Cellular affinity' column). The test is described as follows: column 'Cellular affinity' of the drawn table; unit not given, the assay is not described in the filing and the format of the construct is not stated.
For test [3], the target named is Recombinant soluble CD19 ectodomain (made in 293T cells) (UniProt P15391). The test is described as follows: flow cytometry of transduced primary human T-cells stained with anti-CD3 and, for CAR, with recombinant CD19. Other quadrants: 67.5 upper left, 1.43 lower left, 0.24 lower right. The non-transduced control has 0.27 in the upper right.

Chain of UniProt P15391 (P15391 20-291 limits assumed): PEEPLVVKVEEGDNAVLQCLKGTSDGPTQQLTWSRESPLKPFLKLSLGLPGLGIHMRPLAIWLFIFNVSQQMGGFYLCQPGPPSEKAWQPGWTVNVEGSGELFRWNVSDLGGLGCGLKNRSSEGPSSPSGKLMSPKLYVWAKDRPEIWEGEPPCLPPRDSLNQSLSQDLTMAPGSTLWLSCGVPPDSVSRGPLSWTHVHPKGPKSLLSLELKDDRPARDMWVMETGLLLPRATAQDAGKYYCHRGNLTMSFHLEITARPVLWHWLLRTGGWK

In the case of “4G7 CAR in the Campana format (CD8 stalk spacer and transmembrane domain, 41BB endodomain, CD3-Zeta endodomain), on primary human T-cells”, the % of cells in the CD3+ CAR+ quadrant (upper right) in test [1] amounted to 23.3%.

In turn, “4G7 scFv-Fc (soluble recombinant scFv in scFv-Fc format, made in 293T cells) (Fc fusion)” showed a Cellular affinity in test [2] of 1e-09.

As for “Fmc63 scFv-Fc (soluble recombinant scFv in scFv-Fc format, made in 293T cells) (Fc fusion)”, the Cellular affinity in test [2] was found to be 2e-10.

For “fmc63 CAR in the Campana format (CD8 stalk spacer and transmembrane domain, 41BB endodomain, CD3-Zeta endodomain), on primary human T-cells”, the % of cells in the CD3+ CAR+ quadrant (upper right) in test [3] stood at 30.8%.

The values are drawn from patent publication US20180064758A1.
